Data: patent US20240409647A1 (SINOMAB BIOSCIENCE, published 2024)

Tests used:
[1] = target: T1, human IL-17 receptor subunit C (human, UniProt Q8NAC3-2 21-467, limits assumed); assay: ELISA, coated receptor; SM17 at 0.016 µg/mL; well 1
T1 construct: also called IL17RC; hIL17RC
T1 sequence (looked up): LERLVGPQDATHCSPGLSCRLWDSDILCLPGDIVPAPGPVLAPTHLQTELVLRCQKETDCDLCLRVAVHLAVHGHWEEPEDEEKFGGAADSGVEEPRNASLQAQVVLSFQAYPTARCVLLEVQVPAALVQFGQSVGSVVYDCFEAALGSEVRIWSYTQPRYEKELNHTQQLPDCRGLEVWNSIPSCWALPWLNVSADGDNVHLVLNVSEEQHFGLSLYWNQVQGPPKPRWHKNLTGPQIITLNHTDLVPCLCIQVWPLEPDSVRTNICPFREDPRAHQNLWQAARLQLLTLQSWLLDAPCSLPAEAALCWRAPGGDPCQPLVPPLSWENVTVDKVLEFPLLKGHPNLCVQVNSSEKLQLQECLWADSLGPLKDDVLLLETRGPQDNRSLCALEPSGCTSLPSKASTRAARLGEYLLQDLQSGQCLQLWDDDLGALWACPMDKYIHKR

[2] = target: T2, human IL-17 receptor subunit A (human, UniProt Q96F46 33-320); assay: ELISA, coated receptor; SM17 at 0.016 µg/mL; well 2
T2 construct: also called IL17RA; hIL17RA

[3] = target: T3, human IL-17RB protein (recombinant, R&D systems) (human); assay: as above
T3 construct: Bought protein; also called hIL17RB
T3 sequence (Q9NRM6 whole entry, looked up): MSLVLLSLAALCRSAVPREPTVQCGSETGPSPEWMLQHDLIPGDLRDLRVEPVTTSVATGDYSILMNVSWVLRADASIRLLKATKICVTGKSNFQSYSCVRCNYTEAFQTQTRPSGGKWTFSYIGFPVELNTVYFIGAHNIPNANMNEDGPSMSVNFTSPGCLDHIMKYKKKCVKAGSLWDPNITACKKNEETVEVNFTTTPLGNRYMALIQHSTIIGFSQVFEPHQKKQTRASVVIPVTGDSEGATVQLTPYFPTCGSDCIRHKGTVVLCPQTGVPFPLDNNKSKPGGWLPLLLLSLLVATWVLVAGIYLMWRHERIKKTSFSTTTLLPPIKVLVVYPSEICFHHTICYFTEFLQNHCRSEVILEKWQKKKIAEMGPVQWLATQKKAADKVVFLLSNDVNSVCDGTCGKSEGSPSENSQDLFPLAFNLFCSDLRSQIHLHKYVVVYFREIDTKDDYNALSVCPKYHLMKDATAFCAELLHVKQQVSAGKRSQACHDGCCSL

[4] = target: T4, human IL-17 receptor subunit E (human, UniProt Q8NFR9 24-454, limits assumed); assay: as above
T4 construct: also called hIL17RE
T4 sequence (looked up): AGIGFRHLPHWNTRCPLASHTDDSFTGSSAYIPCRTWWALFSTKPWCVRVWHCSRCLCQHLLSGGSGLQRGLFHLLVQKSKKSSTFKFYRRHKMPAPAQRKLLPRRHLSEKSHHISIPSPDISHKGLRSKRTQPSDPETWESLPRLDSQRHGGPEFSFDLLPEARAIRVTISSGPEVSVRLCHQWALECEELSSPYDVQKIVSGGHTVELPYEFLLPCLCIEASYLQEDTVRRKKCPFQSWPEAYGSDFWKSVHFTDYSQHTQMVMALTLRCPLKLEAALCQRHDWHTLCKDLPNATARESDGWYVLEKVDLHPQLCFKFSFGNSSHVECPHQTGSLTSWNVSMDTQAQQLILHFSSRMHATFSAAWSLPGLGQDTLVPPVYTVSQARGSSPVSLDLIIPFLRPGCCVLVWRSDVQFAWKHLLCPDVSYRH

[5] = target: T5, human IL-17 receptor subunit D (human, UniProt Q8NFM7 28-299, limits assumed); assay: as above
T5 construct: also called IL17RD; hIL 17RD
T5 sequence (looked up): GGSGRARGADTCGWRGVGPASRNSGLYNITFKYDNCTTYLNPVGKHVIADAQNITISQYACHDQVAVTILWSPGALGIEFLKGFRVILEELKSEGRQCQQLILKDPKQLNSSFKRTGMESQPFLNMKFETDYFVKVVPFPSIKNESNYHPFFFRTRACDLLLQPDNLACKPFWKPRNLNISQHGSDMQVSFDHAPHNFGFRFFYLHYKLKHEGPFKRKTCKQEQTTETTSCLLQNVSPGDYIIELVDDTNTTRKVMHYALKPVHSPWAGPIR

[6] = target: T1, human IL-17 receptor subunit C; assay: as above
[7] = target: T2, human IL-17 receptor subunit A; assay: ELISA, coated receptor; SM17 at 0.0032 µg/mL; well 1
[8] = target: T4, human IL-17 receptor subunit E; assay: as above
[9] = target: T1, human IL-17 receptor subunit C; assay: as above
[10] = target: T2, human IL-17 receptor subunit A; assay: ELISA, coated receptor; SM17 at 0.0032 µg/mL; well 2
[11] = target: T3, human IL-17RB protein (recombinant, R&D …); assay: as above
[12] = target: T4, human IL-17 receptor subunit E; assay: as above
[13] = target: T5, human IL-17 receptor subunit D; assay: as above
[14] = target: T1, human IL-17 receptor subunit C; assay: as above

B1: SM17 (antibody, human IgG4 S228P, kappa, V domains shown)
VH: QVQLVQSGAEVKKPGASVKVSCKASGYTFISYWMNWVRQAPGQGLEWMGRIDPYDSEIQYNQKFKDRVTMTRDTSISTAYMELSRLRSDDTAVYYCARSGGFDWFAYWGQGTLVTVSS
VL: DIQMTQSPSSLSASVGDRVTITCRASENINSNLAWYQQKPGKAPKLLLYDVTNLADGVPSRFSGSGSGTDYTLTISSLQPEDFATYYCQHFWGPPYTFGGGTKVEIKR
notes: other paragraphs and claim 15 call the same entries VH and VL; also called humanized anti-IL17RB monoclonal antibody
[1]
  OD 450 nm Absorption: 0.09 OD450
[2]
  OD 450 nm Absorption: -0.04 OD450
[3]
  OD 450 nm Absorption: 0.3 OD450
[4]
  OD 450 nm Absorption: -0.04 OD450
[5]
  OD 450 nm Absorption: 0.02 OD450
[6]
  OD 450 nm Absorption: 0.02 OD450
[7]
  OD 450 nm Absorption: 0.2 OD450
[8]
  OD 450 nm Absorption: -0.01 OD450
[9]
  OD 450 nm Absorption: 0.03 OD450
[10]
  OD 450 nm Absorption: -0.03 OD450
[11]
  OD 450 nm Absorption: 0.07 OD450
[12]
  OD 450 nm Absorption: -0.02 OD450
[13]
  OD 450 nm Absorption: -0.04 OD450
[14]
  OD 450 nm Absorption: -0.04 OD450
